The results in this text go back to the nanobody polyreactivity screen of Harvey et al. (2022).

The series is described as follows: yeast display, Sf9 membrane polyspecificity reagent, FACS + sequencing; frameworks hold sequencing errors. Summed up:
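In a synthetic yeast display library (Saccharomyces cerevisiae BJ5465), nanobody expression was induced with galactose for 36–48 hours. FACS gates were set low and high (top ~1%) using anti-HA fluorescence for expression and streptavidin fluorescence for binding of the Sf9 membrane reagent. Each polyreactivity label is drawn from the gate of origin.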
Take “QVQLVDTGGGLVQAGGSLRLSCAASGFTFRWYAMGWYRQAPGKERELVAAISWRGGSTYYADSVKGRFTISRDNAKTTVYLQMNSLKPEDTAVYYCAALRYWISLSSYEYWGQGTQVTVSS”: the “polyreactivity (PSR sort gate)” value is “high polyreactivity”. The value for “QDQLVESGGGLVQAGGSLRLSCAASGFTFACYTMGWYRQAPGKERELVAGIDWSGGSTYYADSVKGRFTISRDNEKNTVYLEMNSLKPEDTAVYYCNAAVLYYVYPGYDYWGQGTQVTVSS” was “high polyreactivity”; that for “QVQLVESGGGLVQAGGSLRLSCAASGSIFDIYAMAWYRQAPGKERELVARIRGSGGRTYYADSVKGRFTISRDNAKNTVYLQMNSLKPEDTAVYYCNAGVRAVNRKYDYWGQGTQVTVSS” was “high polyreactivity”; that for “QVQLVESVGGLVQAGGSLRLSCAASGLIFIISTMGWDRQAPGKERELVAAITRRGGITYYADSVKGRFTISRDNAKNTVYLQMNSLKPEDTAVYYCAVVRPYNIWYDYWGQGTQVTVSS” was “low polyreactivity”.

Regarding “QVQLVESGGGLVQAGGSLRLSCAASGIIFAWYAMGWYRQAPGKERELVAAINWSGGSTYYADSVKGRFTISRDNAKNTVYLQMNSLKPEDTAVYYCNADFQDRTDDYDYWGQGTQVTVSS”, the “polyreactivity (PSR sort gate)” value was “low polyreactivity”. With “QVQLVESGGGLVQAGGSLRLTCAASGSTFLFYARGWYRQAPGKERELVAAIRGRGGSTYYADSVKGRFTISRDNAKNTVYLQMNSLKPEDTAVYYCAALSRFPVNRYSDLDLYYWGEGTQVTVSS”, the “polyreactivity (PSR sort gate)” value is recorded as “high polyreactivity”. The value for “QVQLVESGGGLVQAGGSLRLSCAASGRIFNPNVMGWYRQAPGKERELVAAISWSGDTTYYADSVKWRFTISRDNAKNTVYLQMNSLKPEDTEVYYCATESDGYAYENYEYWGQGTQVTVSS” was “high polyreactivity”; that for “QVQLVESGVGLVQAGGSLRLSCAASGPTFRNNAMVWSRQAPGKERELVAAITSGGSTNYADSVKGRFTISRDNAKNTVYLQMNSLKPEDTAVYYCAKDFWYVTGGWSSGMDYWGQGTQVSVSS” was “low polyreactivity”. Next, “QVQLVESGGGLVQAGGSLRLSCAASGSTFPTYGMGWYRQAPGKEREFVARINWNGGGTYYADSVKGRFTISRDNAKNTVYLQMNSLKPEDTAVYYCNARKRGARFILGYDYWGQGTQVTVSS”: “low polyreactivity”; “QVHLVESGGGLVQAGGSLRLSCAASGRIFAYYTMGWYRQAPGKERELVAAITSRGGSTYYADSVKGRFTISRDNAKKTVYLQMNSLKPEDTAVYYCADMRPSNVDYWGQGTQVTVSS”: “high polyreactivity”; “QVQLVESGGGLVQAGGSLRLSCAASGIIFSLYVMGWYRQAPGKERELVAAIRSGGSTYYADSVKGRFTISRDNAKNTVYLQMNSLKPEDTAGDYCAARVRSGTGVGFDYWGQGTQVTVSS”: “high polyreactivity”. Next, “QVQLVESGGGLVQAGGSLRLSCAASGLTFQYYAMGWYRQAPGKEREFVAAITRRGGNTYYADSVKGRFTISRDNAKNTVYLQMNSLKPEDTAVYYCAARYLQGRYDYWGQGTQVTVSS”: “high polyreactivity”. “QVQLVESGGGLVQAGGSLRLSCAASGRTFGDYAMGGYRPAPGKESELVAAISRRGGNTYYADSVKGRFTISRDNAKNTVYLQMNSLKPDDTAVYDCAAVAYALGFASKEDYWGQGTQVTGSS”: the “polyreactivity (PSR sort gate)” value is “high polyreactivity”. Turning to “QVQLVESGGGLVQAGGSLRLSCAASGRTFTQNAMGWYRQAPGKERELVAAISSGGRTYYADSVKGRFTISRDNAKNTVYLQMNSLKPEDTAVYYCNAGGGRRMYWGLGTQVTVSS”, the “polyreactivity (PSR sort gate)” value is on record as “high polyreactivity”.

Consider “QVQLVESGGGLVQAGGSLRLSCAASGITFKPNTMGWYRQAPGKERELVAAIDWSGSSTYYADSVKGRFTISRDNAKNTVYLHMNSLKPEDTAVYYCAADEYEYFWSYDYWGQGTQVTVSS”, for which the “polyreactivity (PSR sort gate)” value is reported as “low polyreactivity”.

Regarding “QVQLVESGGGLVQAGGRLRLSCAASGRTFGTYAKGWSRQATGKERELVAAIRSNAGSTYYADSVKGRFTISRDNAKITVYLQMNSLKPEDTAVYYCAKSYRSSRRYNYWGQGTQVNVSS”, the “polyreactivity (PSR sort gate)” value was “high polyreactivity”. Next, “QVQLVESGGGLVQAGGSLRLSCAPSGSIFRWYAMGWYRQAPGKERELVAAITSGGSTYYADSVKGRFTISRDNAKNTVYVQMNSLKPEDTAVYYCNAAKLASHTYDYWGQGTQVTVSS”: “low polyreactivity”; “QVQLVESGGGLVQAGGSLRLSCAASGLIFGSYAMGWYRQAPGKERELVAASSRSGGSTYYADSVKGRFTISRDKAKNSVYLQMISLKPEDTAVYYFAADDYSSEYDYWGQGTQVTVSS”: “high polyreactivity”; “QVQLQESGSGLVQAGGSLRLGCAASGNISDAGYMGWYRQAPGKEREFVAAIAAGSNTNYADSVKGRFTISRDNAKNTVYLQLNSLKPEVTAVFYCAVASYARVQYEYWGQGTQVTVNS”: “low polyreactivity”.

On to “QVQLVESGGGLVQAGGSLRLSCAASGRIITYYAMGWYRQAPGKERELVAAISRTGGTTYYADSVKGRFTISRDNAKNTVYLQMNSLKPEDTAVYYWNAVKAPYLRYDYWGQGTQVTVSS”, for which the “polyreactivity (PSR sort gate)” value was “high polyreactivity”.

With “QVQLVESGGGLVQAGGSLRLSCAASGITFQRYAMGWYRQAPGKERELVAAISTNGGTTYYADSVKGRFTISRDNAKNTVYLQMNSLKPEDTAVYYCNAESGYVYYIRYNYWGQGTQVTVSS”, the “polyreactivity (PSR sort gate)” value is reported as “high polyreactivity”. The value for “QVQLVESGGGLVQAGGSLRLSCAASGSIFPYYAMGWYRQAPGKERELVARITWRSTSTYADSVKGRFTISRDNAKNTVYLQMNSLKPEDTAVYYCAVRLLSTYIIEYDHWGQGTQVTVSS” was “low polyreactivity”; that for “QVQLVESGGGLVQAGGSLRLSCAAYGLTFYFYAMGWYRQAPGKERELVAAIDWGGGSTYYADSVKGRFTISRDNAKNTVYLQMNSLKPEDTAVYYCAARGYYYNYDVNYWGQGTQVTVSS” was “low polyreactivity”; that for “QVQLVESGGGLVQAGGSLRLSCADSGRTFSTYAMGWYRQAPGKERELVAAISSGGGRTYYADSVKGRFTISRDNAKNTVYLQINSLKPEDTAVYYCAADRYFRSRRSYEYWGQGTQVTVSS” was “low polyreactivity”. Next, “QVQLVESGGGLVQAGGSLRLSCAASGSTIDRYAMGWYIQAPGKEREFVAAISFSSASTYYADSVKGRFTISRDNAKNTVYLQMNSLKPEDTAVYYCNADFFDSGGSIEYDSWGQGTQVTVSS”: “low polyreactivity”; “QVQIVESGGGLFQAGGSLRISCAASGRPFAPNAMGWYRQAPAKERELVAAITGRGGRTYYADSVKGRFTISRDNANNTVYLQMNSEKPADTAVYYCAYFIAPWGLDFWGQGTEVTVSS”: “high polyreactivity”.

As for “QVQLVESGGGLVQAGGSLRLSCAASGSTFGRYAMGWYGQAPGKERELVAAISASGASTYYADSVKGRFTISRDNAKNTVYLQMNSLKPEDTAVYYSNAPYYFAGKPWGSWRYGYWGQGTQVTVSS”, the “polyreactivity (PSR sort gate)” value was “low polyreactivity”.

On to “QVQLVESGGGLVQAGGSLRLSCAASGSTFWYNAMGWYRQAPGKERELVAAISQSGGRTYYADSVKGRFTISRDNAKNTVYLQMNSLKPEDTAVYYCNAVSRDKSLYDYWGQGTQVTVSS”, for which the “polyreactivity (PSR sort gate)” value is reported as “high polyreactivity”.

“QVHLVESGGGLDQAGGSLRLSSAASGTTYRYAMGCYRQAPGKAMELVATISSRGGTTSYADSVKGRFTISRDNAKNTVYLQMNSLKPEDTAVYSCAAGQFPKYFSDDADMDYWGQGPQVTVSS”: the “polyreactivity (PSR sort gate)” value is on record as “low polyreactivity”.

In the case of “QVQLVESGGGLVPAGGSLRLSWAASGRTFTRNAMGWYRQAPGKERELVAVITSSGRTNYADSVKGRVTISRDNAKNTVYLQMNSLKPEDTAVYYCNKVSARYPYPLYDYWGQGTQVTVSS”, the “polyreactivity (PSR sort gate)” value is “high polyreactivity”.

“QVQLVESGGGLVQAGGSLRLSCAASGSTFRQYAMGWYRQEPGKERELVAAITWRGDNTYYADSVKGRFTISRDNAKNTVYLQMNSLKPEDTAVYYCAAEYTVYVTDWYDYYYWGQGTQVTVSS”: the “polyreactivity (PSR sort gate)” value is “low polyreactivity”. Next, “QVQLVESGGGLVQAGGSLRLSCAASGRIFYGNAMGWYRQAPGKEREWVAAISSGTSTNYADSVKGRFTISRDNAKNTVFLQMNSLKPEDTAVYYCADGSYSRYLYSLYFDFDYWGQGTQVTVSS”: “low polyreactivity”. The value for “QVQLVESGGGLVQAGGSLRLSCADSGSTIPKYAMGWSRQAPGKERELVAVITSGGSTYYADSVKGRFTISRDNAKNTVYLQMISLKPEDTAVYYCAARKYRRFDYWGQGTQVTVSS” was “high polyreactivity”; that for “QVQLVESGGGLVQAGGSLRLSCAASGFIFRWYAMGWYRQAPGKERELVATITGGGSTYYADSVKGRFTISRDNAKNTVYLQMNSLKPEDTAVYYCNARQIWKYSVRDDYWGQGTQVTVSS” was “high polyreactivity”; that for “QVQLEESGGGLVQAGGSLRLSCAASGSIFDYYAMGWYRQAPGTERELVATITSGVSTYYADSVKGRFTISRDNAKNTVYLQMNSLKPEETAVYYCARDYAKSQDVYKYDYWGQGTQVTVSS” was “low polyreactivity”. For the sequence “QVQLVESGGGLVQAGGSLRLSCAASGFIFRAYTMGWYRQAPGKERELVAAITSGSSTNYADSVKGRFTISRDNAKNTVYLQMNSLKPEDTAVYYCNTDWVWLIIEYDYWGQGTQVTVSS”, the “polyreactivity (PSR sort gate)” value was “low polyreactivity”. Next, “QVQLVESGGGLVQAGGSLRLSCAASGFTFYLYTMGWYRQAPGNESELVATITSDGGTNYADSVKGRFTISRDNAKNTVYLQMNSLKPEDTAVYYFNAASRRGSRKQAKYDYWGQGTQVTVSS”: “low polyreactivity”; “QVQLVESGGGLVQAGGSLRLSCAASGRTLGIYAMGWYIQAPGKERELVADISRDSSTYYADSVKGRFTISRDNAKNTVYLQMNSLKPEDTAVYYCNADQTPRDVTDWWYDYDYWGQGTQVTVSS”: “low polyreactivity”. With “QVQLVESGGGLVQAGGSLRLSCAASGGIFSCKAMGWYRQAPGKERELVAAITTRGGSTYYADSVKGRFTISRDNAKNSVYLQMNSLKPEDTAVYYCAAEGYEEFNWGQGTQVTVSS”, the “polyreactivity (PSR sort gate)” value is recorded as “low polyreactivity”. For “QVQLVESGGGLVQAGGSLRLSCAASGSIFSAKTMGWYRQAPGKERELVAAISSSGGRTYYADSVKGRFTISRDHAKNTVYLQMNSLKPEDTAVYYSNARSRYHVTPYSGVTGYDYWGQGTQVTVSS”, the “polyreactivity (PSR sort gate)” value is “high polyreactivity”.

“QVQLVESGGGLVQAGGSLRLSCAASGITFPYYAMGWYRQAPGKERELVAAITRSGSSTYYADSVKGRFTISRDNAKNTVYLQMNSLKPEDTAVYYCAAKRGAGEDYWGQGTQVTVSS”: the “polyreactivity (PSR sort gate)” value was “high polyreactivity”.
